We go through 9 molecules from patent US20240010720A1 (IOMX THERAPEUTICS, published 2024).

Substitutions are numbered along the chain they refer to.

B1: A-001 (scFv format) (scFv, V domains shown)
VH: EVQLVESGGGLVKPGGSLRLSCAASGFTFSSYSMNWVRQAPGKGLEWVSSISSSSSYIYYADSVKGRFTISRDNAKNSLYLQMNSLRAEDTAVYYCVRSIIVQALGITSVFDIWGQGTMVTVSS
VL: AIRLTQSPSSLSASVGDRVTISCRASQIISNHLNWYQQKPGKAPKLLIYAASRLQTGVPSRFSGSGSETDYTLTISSLQPEDFATYYCQQSYSNPRTFGHGTKVEIK
notes: scFv
B2: A-008 (scFv format) (scFv, V domains shown)
VH: QLQLQESGPGLVKPSETLSLTCTVSGGSISSSGYYWGWIRQPPGKGLEWIGSIYYSGSTYYNPSLKSRVTISVDTSKNQFSLKLSSVTAADTAVYYCARHRVRFGEFDAFDIWGQGTMVTVSS
VL: QAVLTQPPSVSGAPGERVTLSCTGTSSNVGADFDVHWYQQFPGTAPRLLIFGSDNRPSGVPDRFSGSKSGTSASLAITGLQVEDEADYYCQAYDVRLSGWVFGGGTKLTVL
notes: scFv
B3: A-007 (scFv format) (scFv, V domains shown)
VH: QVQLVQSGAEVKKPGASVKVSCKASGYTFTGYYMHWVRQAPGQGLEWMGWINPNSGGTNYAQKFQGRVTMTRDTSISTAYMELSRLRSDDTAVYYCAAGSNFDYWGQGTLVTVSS
VL: QSALTQPASVSGSPGQSITIACTGSSSDIGSFSYVSWYQQRPGKAPTLIIYGVNNRPLGVSRRFSGSKSGNTASLSISGLQAEDEADYYCSSYTRRSTVIFGGGTKLTVL
notes: scFv
B4: A-002 (scFv format) (scFv, V domains shown)
VH: EVQLVESGGGLIQPGGSLRLSCAASGFTVSSNYMSWVRQAPGKGLEWVSVIYSGGSTYYADSVKGRFTISRDNSKNTLYLQMNSLRAEDTAVYYCARGNPYYYGDLQVNFDYWGQGTLVTVSS
VL: QAVVTQEPSLTVSPGGTVTPTCGSSTGAVTSGNLPNWFQQKPGQAPRALIYSTSNKHSWTPARISGSLLGGKAALTLSGVQPEDEAEYYCLLYYGGAWVFGGGTKLTVL
notes: scFv
B5: A-012 (scFv format) (scFv, V domains shown)
VH: B4 VH with V5L, A24V
VL: B4 VL with P20L, G23A, N33Y, L34Y, I64F
notes: scFv
B6: A-006 (scFv format) (scFv, V domains shown)
VH: B4 VH
VL: B4 VL with P20L, G23A, N33Y, L34Y, A48P, I64F, E83D, A97D
notes: scFv
B7: A-005 (scFv format) (scFv, V domains shown)
VH: B4 VH
VL: B4 VL with G16E, P20L, G23A, N33Y, L34Y, K41R, H57D, I64F
notes: scFv
B8: A-013 (scFv format) (scFv, V domains shown)
VH: B4 VH
VL: B4 VL with P20L, G23A, G32A, N33Y, L34Y, I64F, E87D
notes: scFv
B9: A-009 (scFv format) (scFv, V domains shown)
VH: QVQLVQSGAEVKKPGSSVKVSCKASGGTFSSYAISWVRQAPGQGLEWMGGIIPIFGTANYAQKFQGRVTITADESTSTAYMELSSLRSEDTAVYYCARGRGFGELYFDYWGQGTLVTVSS
VL: ETTLTQSPATLSVSPGERATLSCRASQGVRSNIAWYQQKPGQAPRLLIYDSSTRATGIPARFSGSGSGTEFTLTISSLQSEDFAVYSCQQYKNWPRTFGQGTKVEIK
notes: scFv

The target in the test is T1, Streptavidin (UniProt P22629 37-163, limits assumed).
T1 construct: also called negative antigen; irrelevant antigen
T1 sequence (P22629 37-163 limits assumed): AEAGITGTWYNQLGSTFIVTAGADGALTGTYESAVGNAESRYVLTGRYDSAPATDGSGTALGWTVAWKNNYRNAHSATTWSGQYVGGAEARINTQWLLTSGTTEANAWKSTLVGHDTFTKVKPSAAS
Nature of the test: ELISA, scFv.
On to B1, for which the binding result is “no binding (tested: <0.025 or <0.05 RFU)”.

B2: the binding result is “no binding (tested: <0.025 or <0.05 RFU)”.

Regarding B3, the binding result is given as “no binding (tested: <0.025 or <0.05 RFU)”.

Consider B4, for which the binding result is given as “no binding (tested: <0.025 or <0.05 RFU)”.

In the case of B5, the binding result is given as “no binding (tested: <0.025 or <0.05 RFU)”.

Consider B6, for which the binding result is listed as “no binding (tested: <0.025 or <0.05 RFU)”.

With B7, the binding result is “no binding (tested: <0.025 or <0.05 RFU)”.

Consider B8, for which the binding result is given as “no binding (tested: <0.025 or <0.05 RFU)”.

Take B9: the binding result is reported as “no binding (tested: <0.025 or <0.05 RFU)”.
